Values quoted from earlier work in paper PMC6322933.

Target: ZPI (Homo sapiens) (UniProt Q9UK55)
Sequence of UniProt Q9UK55 (Q9UK55 22-444): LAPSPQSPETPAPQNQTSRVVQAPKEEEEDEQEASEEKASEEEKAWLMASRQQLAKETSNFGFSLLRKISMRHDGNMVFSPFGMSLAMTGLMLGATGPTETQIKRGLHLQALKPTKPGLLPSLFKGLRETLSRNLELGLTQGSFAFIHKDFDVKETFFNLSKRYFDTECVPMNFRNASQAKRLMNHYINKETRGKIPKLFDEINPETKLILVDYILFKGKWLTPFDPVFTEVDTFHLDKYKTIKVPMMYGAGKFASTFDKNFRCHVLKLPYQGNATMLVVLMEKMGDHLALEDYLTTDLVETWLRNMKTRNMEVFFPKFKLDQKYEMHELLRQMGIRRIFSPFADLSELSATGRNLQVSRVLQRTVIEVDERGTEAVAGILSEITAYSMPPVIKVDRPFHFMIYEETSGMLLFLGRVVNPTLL

Kd: 0.6 nM
Substance: Protein Z (from UniProt P22891)
